T1: Dmp53 (Drosophila melanogaster, UniProt Q9N6D8 1-385)
T1 sequence: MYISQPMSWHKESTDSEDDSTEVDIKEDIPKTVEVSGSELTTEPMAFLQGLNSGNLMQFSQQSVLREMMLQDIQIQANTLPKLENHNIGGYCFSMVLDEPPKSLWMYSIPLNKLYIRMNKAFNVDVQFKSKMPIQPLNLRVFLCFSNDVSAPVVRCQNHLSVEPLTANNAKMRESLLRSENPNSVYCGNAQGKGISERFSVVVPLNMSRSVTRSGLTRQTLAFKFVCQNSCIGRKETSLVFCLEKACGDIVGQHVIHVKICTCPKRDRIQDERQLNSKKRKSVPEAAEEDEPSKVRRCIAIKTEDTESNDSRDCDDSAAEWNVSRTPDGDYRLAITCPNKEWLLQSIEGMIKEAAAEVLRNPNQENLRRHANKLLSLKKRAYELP

T2: ΔNp73β (Homo sapiens, UniProt O15350-9 1-450)
T2 sequence: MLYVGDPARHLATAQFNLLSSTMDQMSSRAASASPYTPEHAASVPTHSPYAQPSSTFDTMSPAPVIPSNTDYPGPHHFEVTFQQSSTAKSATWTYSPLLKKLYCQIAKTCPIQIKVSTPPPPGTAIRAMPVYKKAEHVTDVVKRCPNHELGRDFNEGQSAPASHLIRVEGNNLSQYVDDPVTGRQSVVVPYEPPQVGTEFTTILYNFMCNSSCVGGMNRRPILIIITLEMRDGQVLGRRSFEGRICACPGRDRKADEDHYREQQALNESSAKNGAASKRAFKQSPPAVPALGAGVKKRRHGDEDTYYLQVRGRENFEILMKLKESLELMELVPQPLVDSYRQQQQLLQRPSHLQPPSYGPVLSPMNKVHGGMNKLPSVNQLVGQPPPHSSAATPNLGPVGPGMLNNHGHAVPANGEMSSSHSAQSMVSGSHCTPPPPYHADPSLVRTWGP

T3: ΔNp63β (Homo sapiens, UniProt Q9H3D4-4 1-461)
T3 sequence: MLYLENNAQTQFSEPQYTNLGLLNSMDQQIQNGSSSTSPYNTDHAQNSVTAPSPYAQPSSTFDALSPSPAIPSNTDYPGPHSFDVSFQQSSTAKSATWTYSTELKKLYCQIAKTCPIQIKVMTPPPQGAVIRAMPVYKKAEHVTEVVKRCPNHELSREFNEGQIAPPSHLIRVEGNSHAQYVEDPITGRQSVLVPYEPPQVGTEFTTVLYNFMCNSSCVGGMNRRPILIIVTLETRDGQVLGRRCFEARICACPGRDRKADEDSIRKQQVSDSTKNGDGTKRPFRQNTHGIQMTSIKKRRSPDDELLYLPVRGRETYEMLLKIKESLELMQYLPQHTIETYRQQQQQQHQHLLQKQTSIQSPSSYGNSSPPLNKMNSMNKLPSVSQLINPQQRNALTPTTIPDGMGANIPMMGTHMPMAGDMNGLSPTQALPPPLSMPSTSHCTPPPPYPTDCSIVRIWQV

T4: p73CT (Homo sapiens, UniProt O15350 104-383)
T4 sequence: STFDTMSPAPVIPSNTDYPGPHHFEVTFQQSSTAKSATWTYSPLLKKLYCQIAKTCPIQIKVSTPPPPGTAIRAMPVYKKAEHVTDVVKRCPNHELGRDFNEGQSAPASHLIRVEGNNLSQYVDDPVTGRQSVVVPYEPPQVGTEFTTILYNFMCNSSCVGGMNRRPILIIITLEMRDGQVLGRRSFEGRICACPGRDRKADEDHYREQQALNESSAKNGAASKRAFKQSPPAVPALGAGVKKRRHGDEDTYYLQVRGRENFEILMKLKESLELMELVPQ

T5: ΔNp63γ (Homo sapiens, UniProt Q9H3D4-6 1-393)
T5 sequence: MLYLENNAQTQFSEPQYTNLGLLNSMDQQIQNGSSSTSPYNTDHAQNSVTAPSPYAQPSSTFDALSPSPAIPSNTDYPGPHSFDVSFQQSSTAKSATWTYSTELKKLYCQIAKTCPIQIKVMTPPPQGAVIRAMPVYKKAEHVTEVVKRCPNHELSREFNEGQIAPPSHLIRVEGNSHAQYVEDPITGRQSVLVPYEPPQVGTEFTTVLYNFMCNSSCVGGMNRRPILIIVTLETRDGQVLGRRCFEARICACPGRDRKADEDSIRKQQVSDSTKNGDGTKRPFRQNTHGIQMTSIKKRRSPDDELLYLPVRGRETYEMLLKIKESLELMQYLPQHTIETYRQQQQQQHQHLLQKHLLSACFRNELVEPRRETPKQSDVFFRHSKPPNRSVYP


What was measured:
Dmp53 = target: T1, Dmp53; experiment: fluorescence anisotropy direct titration; 25 mM sodium phosphate (purification buffer pH 7.2), 225 mM NaCl, 10% v/v glycerol, 5 mM DTT, 0.2 mg/mL BSA, 22 C; details: protein: recombinant; tags: N-terminal 6xHis-lipoyl-TEV tag, cleaved; chain copies: 4; label: 5'-Alexa488
ΔNp73β = target: T2, ΔNp73β; experiment: as above; details: protein: recombinant; tags: N-terminal 6xHis-lipoyl-TEV tag, cleaved; chain copies: 4; label: 5'-Alexa488
ΔNp63β [1] = target: T3, ΔNp63β; experiment: as above; details: protein: recombinant; tags: N-terminal 6xHis-lipoyl-TEV tag, cleaved; chain copies: 4; label: 5'-Alexa488
p73CT = target: T4, p73CT; experiment: as above; details: protein: recombinant; tags: N-terminal 6xHis-lipoyl-TEV tag, cleaved; chain copies: 4; label: 5'-Alexa488
Mmp53 [2] = target: T6, Mmp53 (Mus musculus, UniProt P02340 1-390); experiment: as above; details: protein: recombinant; tags: N-terminal 6xHis-lipoyl-TEV tag, cleaved; chain copies: 4; label: 5'-Alexa488
T6 sequence (P02340 whole entry): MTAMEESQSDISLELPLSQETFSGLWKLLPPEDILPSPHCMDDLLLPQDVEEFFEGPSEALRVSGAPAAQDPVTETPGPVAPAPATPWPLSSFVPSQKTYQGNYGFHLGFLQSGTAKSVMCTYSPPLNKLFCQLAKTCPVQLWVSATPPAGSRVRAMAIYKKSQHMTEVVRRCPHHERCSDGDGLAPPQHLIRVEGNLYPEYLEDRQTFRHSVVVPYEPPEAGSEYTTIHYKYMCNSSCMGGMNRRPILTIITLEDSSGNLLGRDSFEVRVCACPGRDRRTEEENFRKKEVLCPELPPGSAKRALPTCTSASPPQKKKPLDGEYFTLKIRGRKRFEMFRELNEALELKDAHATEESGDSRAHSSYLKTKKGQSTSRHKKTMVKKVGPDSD

ΔNp63β [3] = target: T3, ΔNp63β; experiment: anisotropy competition; 25 mM NaPi, 225 mM NaCl, 10% v/v glycerol, 5 mM DTT, 0.2 mg/mL BSA, 22°C; 20 nM labelled DNA; pH not stated for the binding assay; details: protein: recombinant; tags: N-terminal 6xHis-lipoyl-TEV tag, cleaved; chain copies: 4
Mmp53 [4] = target: T6, Mmp53; experiment: as above; details: protein: recombinant; tags: N-terminal 6xHis-lipoyl-TEV tag, cleaved; chain copies: 4
ΔNp63γ = target: T5, ΔNp63γ; experiment: as above; details: protein: recombinant; tags: N-terminal 6xHis-lipoyl-TEV tag, cleaved; chain copies: 4

| Binder | Kd (Dmp53) | Kd (ΔNp73β) | Kd (ΔNp63β [1]) | Kd (p73CT) | Kd (Mmp53 [2]) | Kd (ΔNp63β [3]) | Kd (Mmp53 [4]) | Kd (ΔNp63γ) |
| --- | --- | --- | --- | --- | --- | --- | --- | --- |
| Ref_Alexa488 (dsDNA) DNA 1: GGACATGTCCGGACATGTCC DNA 2: GGACATGTCCGGACATGTCC | 52.5 nM | 55 nM | 74.1 nM | 240 nM | 95.5 nM |  |  |  |
| Ref competitor (dsDNA) DNA 1: CGCGGACATGTCCGGACATGTCCCGC DNA 2: GCGGGACATGTCCGGACATGTCCGCG |  |  |  |  |  | -7.45 log10(M) | -6.88 log10(M) | -7.48 log10(M) |

— PMC2807882, “Conservation of DNA-binding specificity and oligomerisation properties within the p53 family”
